Experimental data from US20050020528A1.

What was measured:
fusin/CXCR4 receptor [1] = molecular target: fusin/CXCR4 receptor (UniProt P61073); assay: flow cytometry, fluorescently labeled 12G5 on untreated U937 cells
fusin/CXCR4 receptor [2] = molecular target: fusin/CXCR4 receptor (UniProt P61073); assay: flow cytometry on U937 cells, background subtracted from the 12G5 data

UniProt P61073, sequence (P61073 whole entry): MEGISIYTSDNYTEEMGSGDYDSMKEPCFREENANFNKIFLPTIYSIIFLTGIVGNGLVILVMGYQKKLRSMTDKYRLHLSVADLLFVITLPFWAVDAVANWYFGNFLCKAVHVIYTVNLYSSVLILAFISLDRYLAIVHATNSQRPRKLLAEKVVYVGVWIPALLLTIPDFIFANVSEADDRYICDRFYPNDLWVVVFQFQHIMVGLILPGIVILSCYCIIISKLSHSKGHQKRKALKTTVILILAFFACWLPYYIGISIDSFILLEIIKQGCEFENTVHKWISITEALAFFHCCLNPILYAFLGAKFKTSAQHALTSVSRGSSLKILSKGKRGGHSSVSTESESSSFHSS

Median Fluorescence (net of isotype control) (fusin/CXCR4 receptor [1]) | median fluorescence (fusin/CXCR4 receptor [2]) | Substance
23.2 | – | anti-fusin/CXCR4 12G5 monoclonal antibody
– | 3.6 | isotype control (antibody)
